Data taken from US20090068103.
pKd: −log10 of the molar value.

Biological target: Tenascin-C (TN-C) (Homo sapiens) (UniProt P24821)
Test: FP
Settings: 5'-C6 amine conjugated to MAG2-DO3A chelator; (CH2CH2O)6 spacer between GGGAGGACG and CGUCGC; 3'-3'-T cap; nitrocellulose filter binding, TN-C titrated 1.25e-7 to 6.35e-12 M

Chain of Tenascin-C (TN-C) (Homo sapiens) (P24821 23-2201): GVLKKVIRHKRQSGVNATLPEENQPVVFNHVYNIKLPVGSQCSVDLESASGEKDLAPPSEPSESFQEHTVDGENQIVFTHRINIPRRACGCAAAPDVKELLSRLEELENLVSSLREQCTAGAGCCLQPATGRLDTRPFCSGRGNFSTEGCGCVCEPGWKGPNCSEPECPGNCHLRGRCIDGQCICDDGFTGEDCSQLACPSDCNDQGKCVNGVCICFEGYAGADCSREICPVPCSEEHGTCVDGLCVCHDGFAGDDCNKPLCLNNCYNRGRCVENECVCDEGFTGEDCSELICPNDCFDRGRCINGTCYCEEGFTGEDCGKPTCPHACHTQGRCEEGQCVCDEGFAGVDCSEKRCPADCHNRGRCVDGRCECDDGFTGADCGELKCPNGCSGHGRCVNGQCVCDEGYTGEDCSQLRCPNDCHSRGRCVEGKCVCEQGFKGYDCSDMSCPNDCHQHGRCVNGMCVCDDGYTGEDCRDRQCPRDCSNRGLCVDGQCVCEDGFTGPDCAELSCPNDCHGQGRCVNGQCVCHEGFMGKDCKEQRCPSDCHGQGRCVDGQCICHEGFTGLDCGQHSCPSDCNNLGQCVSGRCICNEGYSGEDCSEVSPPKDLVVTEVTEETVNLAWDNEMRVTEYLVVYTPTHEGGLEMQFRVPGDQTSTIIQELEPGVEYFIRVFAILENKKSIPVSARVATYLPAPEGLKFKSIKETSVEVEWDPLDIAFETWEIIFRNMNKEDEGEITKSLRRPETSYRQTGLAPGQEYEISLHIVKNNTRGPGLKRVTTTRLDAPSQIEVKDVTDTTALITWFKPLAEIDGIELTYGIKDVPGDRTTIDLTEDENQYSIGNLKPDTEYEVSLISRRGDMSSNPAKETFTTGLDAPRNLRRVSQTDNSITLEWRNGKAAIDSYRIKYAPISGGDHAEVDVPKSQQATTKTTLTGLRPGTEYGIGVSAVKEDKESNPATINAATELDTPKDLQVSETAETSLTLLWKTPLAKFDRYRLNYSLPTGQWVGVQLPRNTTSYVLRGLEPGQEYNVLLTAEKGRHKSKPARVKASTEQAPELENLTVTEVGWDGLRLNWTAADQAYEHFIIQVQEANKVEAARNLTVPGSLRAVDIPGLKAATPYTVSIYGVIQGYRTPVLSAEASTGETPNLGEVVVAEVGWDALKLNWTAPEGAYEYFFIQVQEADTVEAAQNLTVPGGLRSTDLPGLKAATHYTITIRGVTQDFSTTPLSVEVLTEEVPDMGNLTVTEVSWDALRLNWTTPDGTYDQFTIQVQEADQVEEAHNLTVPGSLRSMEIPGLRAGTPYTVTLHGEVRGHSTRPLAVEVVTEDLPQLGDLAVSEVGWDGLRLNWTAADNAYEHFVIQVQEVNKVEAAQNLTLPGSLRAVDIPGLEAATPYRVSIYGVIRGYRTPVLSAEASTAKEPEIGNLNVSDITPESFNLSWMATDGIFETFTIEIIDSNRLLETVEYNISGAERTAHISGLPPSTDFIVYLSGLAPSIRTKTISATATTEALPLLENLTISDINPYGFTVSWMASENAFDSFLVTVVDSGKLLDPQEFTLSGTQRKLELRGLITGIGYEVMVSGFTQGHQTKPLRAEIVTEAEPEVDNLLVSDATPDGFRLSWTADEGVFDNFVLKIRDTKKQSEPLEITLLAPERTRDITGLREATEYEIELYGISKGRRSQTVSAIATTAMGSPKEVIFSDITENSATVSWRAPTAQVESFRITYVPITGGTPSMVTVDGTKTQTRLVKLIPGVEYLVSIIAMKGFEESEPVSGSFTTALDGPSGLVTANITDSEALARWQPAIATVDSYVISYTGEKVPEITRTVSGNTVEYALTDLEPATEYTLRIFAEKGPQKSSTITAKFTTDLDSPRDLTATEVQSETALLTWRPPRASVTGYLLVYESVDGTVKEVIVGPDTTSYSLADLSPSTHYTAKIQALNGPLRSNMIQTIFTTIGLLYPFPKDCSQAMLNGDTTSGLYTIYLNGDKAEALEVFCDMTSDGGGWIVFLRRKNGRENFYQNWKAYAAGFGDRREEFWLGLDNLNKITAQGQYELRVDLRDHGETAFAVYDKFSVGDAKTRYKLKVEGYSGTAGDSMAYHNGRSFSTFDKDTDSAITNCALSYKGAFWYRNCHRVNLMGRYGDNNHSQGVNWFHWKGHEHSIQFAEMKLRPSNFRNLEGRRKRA

Sequence: GGGAGGACGCGUCGCCGUAAUGGAUGUUUUGCUCCCUG [111In-TTA1-MAG2-DO3A]
- pKd: 9.00
